US20170190787A1 (INSERM INSTITUT NATIONAL DE LA SANT ET DE LA RECHERCHE M …, published 2017)

Key:
[1] = target: T1, wild type EGFR on cells (A431 cells; HEK293T or NIH/3T3 cells transfected with wild type ErbB1) (UniProt P00533 25-1210, limits assumed); test: cell-based or functional assay
[2] = target: T2, ErbB2 fused to SNAP-tag, expressed on transfected HEK293T cells (UniProt P04626 23-1255, donor fluorochrome covalently on the SNAP-tag); test: HTRF on transfected HEK293T cells, anti-His-d2 detection
T2 construct: whole, on cells; also called ErbB2-ST; not shown: SNAP-tag and FLAG tag

[3] = target: T3, ErbB3 fused to SNAP-tag, expressed on transfected HEK293T cells (UniProt P21860 20-1342, donor fluorochrome covalently on the SNAP-tag); test: as above
T3 construct: whole, on cells; also called ErbB3-ST; not shown: SNAP-tag and FLAG tag

[4] = target: T4, ErbB4 fused to HALO-Tag, expressed on transfected HEK293T cells (UniProt Q15303 26-1308, donor fluorochrome covalently on the HALO-Tag); test: as above
T4 construct: whole, on cells; also called ErbB4-HT; not shown: HALO-Tag and c-myc tag

[5] = target: T5, EGFR fused to SNAP-tag, expressed on transfected HEK293T cells (UniProt P00533 25-1210, terbium cryptate donor fluorochrome (SNAP-Tb) covalently on the SNAP-tag); test: HTRF on living cells; comparison value for monovalent D10
T5 construct: whole, on cells; also called EGFR-ST; ErbB1-ST; not shown: SNAP-tag and FLAG tag (Cisbio plasmid)

[6] = target: T5, EGFR fused to SNAP-tag, expressed on …; test: HTRF on EGFR-ST transfected HEK293T cells, sdAb detected with anti-His-d2; apparent Kd
[7] = target: T6, wild type EGFR on cells in the presence of EGF (ligand-activated, extended conformation) (UniProt P00533 25-1210; P01133 971-1023); test: flow cytometry on A431 cells, d2-labeled sdAb with excess EGF
T6 construct: Receptor-ligand complex as the target: EGFR with EGF added to the cells; also called extended EGFR

[8] = target: T5, EGFR fused to SNAP-tag, expressed on …; test: HTRF on EGFR-ST cells; KD in the presence of D10 as competitor
[9] = target: T5, EGFR fused to SNAP-tag, expressed on …; test: HTRF on EGFR-ST cells; KD in the presence of G10 as competitor
[10] = target: T5, EGFR fused to SNAP-tag, expressed on …; test: KD in the presence of Ab-3 as competitor; method not stated for Table 3
[11] = target: T1, wild type EGFR on cells (A431 cells; …); test: flow cytometry on A431 cells, d2-labeled sdAb with large excess of cetuximab
[12] = target: T5, EGFR fused to SNAP-tag, expressed on …; test: HTRF on EGFR-ST cells; KD in the presence of irrelevant sdAb as competitor
[13] = target: T5, EGFR fused to SNAP-tag, expressed on …; test: KD in the presence of cetuximab as competitor; method not stated for Table 3
[14] = target: T5, EGFR fused to SNAP-tag, expressed on …; test: KD in the presence of panitumumab as competitor; method not stated for Table 3
[15] = target: T5, EGFR fused to SNAP-tag, expressed on …; test: HTRF on EGFR-ST transfected HEK293T cells, directly d2-labeled sdAb; apparent Kd
[16] = target: T5, EGFR fused to SNAP-tag, expressed on …; test: KD in the presence of irrelevant sdAb as competitor; method not stated for Table 3
[17] = target: T6, wild type EGFR on cells in the presence …; test: flow cytometry on A431 cells, G10-d2 in the presence of EGF
[18] = target: T5, EGFR fused to SNAP-tag, expressed on …; test: HTRF on EGFR-ST cells; KD in the presence of E10 as competitor
[19] = target: T5, EGFR fused to SNAP-tag, expressed on …; test: KD in the presence of m425 as competitor; method not stated for Table 3
[20] = target: T5, EGFR fused to SNAP-tag, expressed on …; test: KD in the presence of irrelevant sdAb as competitor; method not stated for Table 3 (values of this column equal Table 2, HTRF on EGFR-ST)

T4 sequence (Q15303 26-1308): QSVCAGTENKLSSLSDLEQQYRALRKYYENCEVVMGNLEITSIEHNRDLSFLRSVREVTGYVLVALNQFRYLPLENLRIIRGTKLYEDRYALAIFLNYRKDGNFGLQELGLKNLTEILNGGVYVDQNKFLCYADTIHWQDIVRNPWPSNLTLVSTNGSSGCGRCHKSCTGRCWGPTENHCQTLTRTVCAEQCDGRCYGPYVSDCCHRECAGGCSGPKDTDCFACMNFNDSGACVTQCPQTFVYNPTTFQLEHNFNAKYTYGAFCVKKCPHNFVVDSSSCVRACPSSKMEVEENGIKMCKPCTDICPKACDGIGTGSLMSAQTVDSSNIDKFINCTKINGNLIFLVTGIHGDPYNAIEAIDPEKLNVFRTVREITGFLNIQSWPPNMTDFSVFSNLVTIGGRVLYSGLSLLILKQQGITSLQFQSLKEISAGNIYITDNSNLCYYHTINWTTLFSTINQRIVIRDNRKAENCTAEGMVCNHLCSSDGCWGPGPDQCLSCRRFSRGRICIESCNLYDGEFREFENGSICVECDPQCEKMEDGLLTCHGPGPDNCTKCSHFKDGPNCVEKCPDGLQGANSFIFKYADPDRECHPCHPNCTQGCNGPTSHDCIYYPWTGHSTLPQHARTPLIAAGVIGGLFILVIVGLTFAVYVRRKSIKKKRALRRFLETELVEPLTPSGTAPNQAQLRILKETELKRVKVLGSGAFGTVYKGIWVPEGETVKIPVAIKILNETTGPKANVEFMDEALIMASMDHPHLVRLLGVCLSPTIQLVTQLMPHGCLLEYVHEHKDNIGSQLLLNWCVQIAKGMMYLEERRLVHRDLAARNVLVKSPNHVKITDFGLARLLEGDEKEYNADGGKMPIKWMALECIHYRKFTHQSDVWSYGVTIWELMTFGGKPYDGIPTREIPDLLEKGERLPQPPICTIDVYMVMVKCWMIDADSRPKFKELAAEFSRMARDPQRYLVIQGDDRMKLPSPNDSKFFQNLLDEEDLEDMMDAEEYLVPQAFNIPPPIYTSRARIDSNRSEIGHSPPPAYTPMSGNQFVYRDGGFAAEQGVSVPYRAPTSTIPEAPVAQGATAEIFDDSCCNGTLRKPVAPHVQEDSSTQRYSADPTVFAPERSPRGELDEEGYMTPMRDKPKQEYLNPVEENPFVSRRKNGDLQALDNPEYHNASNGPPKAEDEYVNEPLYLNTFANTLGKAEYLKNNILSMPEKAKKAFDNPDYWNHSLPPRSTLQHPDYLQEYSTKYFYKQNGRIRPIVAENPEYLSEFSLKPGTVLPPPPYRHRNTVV

B1: biparatopic single domain antibody D4E (D10 - 4x(G4S) linker - E10) (bispecific antibody)
chain: EVQLQESGGGLVQAGGSLRLSCAVSISRTIFSLYAMEWYRQPPGKQRDLVARIYRSGDTNYADSVKGRFTISRDNAKNTVYLQMNSLKPEDTGVYYCNSPAQDWPWGQGTQVTVSSAAAGGGGSGGGGSGGGGSGGGGSMAQVQLQESGGGLAQAGGSLRLSCAASGRTLSSYDMGWFRQAPGKEREFVTAINWGDLSTYYADSVKGRFTISRDNAKNTVYLQMNSLKPEDTAVYYCAARLRYTVSDPIFSRPDRYNYWGQGTQVTVSSAAAEQKLISEEDLNGAAHHHHHHGS
notes: also called bisdAb D4E
inhibition of EGF-induced EGFR phosphorylation (FIG. 11); concentration against that of cetuximab [1]: 100 fold

B2: anti-EGFR single domain antibody D10 (VHH, not shown: small tags and cut ends)
VHH: EVQLVESGGGLVQAGGSLRLSCAVSISRTIFSLYAMEWYRQPPGKQRDLVARIYRSGDTNYADSVKGRFTISRDNAKNTVYLQMNSLKPEDTGVYYCNSPAQDWPWGQGTQVTVSS
notes: Llama VHH produced in E. coli, His-tagged; also called sdAb D10; unlabeled D10
binding result [2]: no binding
binding result [3]: no binding
binding result [4]: no binding
Kd [5]: 6 nM
Kd [6]: 7 nM

B3: d2-labeled anti-EGFR single domain antibody E10 (VHH)
VHH: QVQLQESGGGLAQAGGSLRLSCAASGRTLSSYDMGWFRQAPGKEREFVTAINWGDLSTYYADSVKGRFTISRDNAKNTVYLQMNSLKPEDTAVYYCAARLRYTVSDPIFSRPDRYNYWGQGTQVTVSS
modifications: d2 fluorochrome (d2-NHS) on lysine residues, positions not given
notes: E10 chemically coupled to the acceptor fluorochrome d2 by NHS chemistry; also called E10-d2; E10-D2; not shown: His tag
binding result [7]: no binding
Kd [8]: 17 nM
Kd [9]: 17 nM
Kd [10]: 67 nM
fold increase of binding in the presence of cetuximab [11]: 2 fold
Kd [12]: 20 nM
Kd [13]: 11 nM
Kd [14]: 70 nM
Kd [15]: 106 nM
Kd [16]: 20 nM

B4: d2-labeled anti-EGFR single domain antibody G10 (VHH)
VHH: EVQLVESGGGLVQAGGSLRLSCAASGRTFSNYAMGWFRQAPGKEREFVAGIIWSGSRTYYADPVKGRFTISRDNAKNTVYLQMNSLNVEDTAVYYCAASMGDYDVSLASPRSWGKGTQVTVSS
modifications: d2 fluorochrome (d2-NHS) on lysine residues, positions not given
notes: G10 chemically coupled to the acceptor fluorochrome d2 by NHS chemistry; also called G10-d2; d2-labeled clone G10; not shown: His tag
fold increase of affinity against EGFR without EGF [17]: 8 fold
Kd [8]: 6 nM
Kd [18]: 17 nM
Kd [19]: 32 nM
Kd [12]: 12 nM
Kd [13]: 21 nM
Kd [14]: 27 nM
Kd [15]: 87 nM
Kd [16]: 12 nM

B5: d2-labeled anti-EGFR single domain antibody D10 (VHH)
VHH: EVQLVESGGGLVQAGGSLRLSCAVSISRTIFSLYAMEWYRQPPGKQRDLVARIYRSGDTNYADSVKGRFTISRDNAKNTVYLQMNSLKPEDTGVYYCNSPAQDWPWGQGTQVTVSS
modifications: d2 fluorochrome (d2-NHS) on lysine residues, positions not given
notes: D10 chemically coupled to the acceptor fluorochrome d2 by NHS chemistry; also called D10-d2; d2-labeled clone D10; not shown: His tag
binding result [7]: no binding
Kd [18]: 11 nM
Kd [9]: 7 nM
Kd [10]: 3 nM
Kd [19]: 14 nM
Kd [12]: 7 nM
Kd [13]: 10 nM
Kd [14]: 13 nM
Kd [15]: 27 nM
Kd [20]: 7 nM

B6: anti-EGFR single domain antibody E10 (VHH, not shown: small tags and cut ends)
VHH: QVQLQESGGGLAQAGGSLRLSCAASGRTLSSYDMGWFRQAPGKEREFVTAINWGDLSTYYADSVKGRFTISRDNAKNTVYLQMNSLKPEDTAVYYCAARLRYTVSDPIFSRPDRYNYWGQGTQVTVSS
notes: Llama VHH produced in E. coli, His-tagged; also called sdAb E10; unlabeled E10
binding result [2]: no binding
binding result [3]: no binding
binding result [4]: no binding
Kd [6]: 25 nM

B7: anti-EGFR single domain antibody G10 (VHH, not shown: small tags and cut ends)
VHH: EVQLVESGGGLVQAGGSLRLSCAASGRTFSNYAMGWFRQAPGKEREFVAGIIWSGSRTYYADPVKGRFTISRDNAKNTVYLQMNSLNVEDTAVYYCAASMGDYDVSLASPRSWGKGTQVTVSS
notes: Llama VHH produced in E. coli, His-tagged; also called sdAb G10; unlabeled G10
binding result [2]: no binding
binding result [3]: no binding
binding result [4]: no binding
Kd [6]: 15 nM
